Where two headings read alike, the source gives them in different places.
B1: CTAP-III(Leu21): analog of CTAP-III in which the methionine at position 21 is replaced with leucine (protein, UniProt P02775 44-128, looked up, variant M21L)
Connective tissue-activating …: NLAKGKEESLDSDLYAELRCLCIKTTSGIHPKNIQSLEVIGKGTHCNQVEVIATLKDGRKICLDPDAPRIKKIVQKKLAGDESAD
modifications: Connective tissue-activating peptide III

What was measured:
Isoelectric point (pI) = type: physicochemical
thrombin [1] = molecular target: T1, thrombin (Homo sapiens, UniProt P00734); settings: E. coli, cited from earlier work
thrombin [2] = molecular target: T1, thrombin; experiment: Specific activity of recombinant hirudin (antithrombin activity), applicant's hirudin; type: biochemical
Text: There are a number of activity assays developed to determine the quality of hirudin preparations and for use in quantitating hirudin in various biochemical and pharmacological experiments. Two of these methods have been refined herein and may be used routinely and reproducibly. The first, a chromogenic substrate assay measures the inhibition by hirudin of thrombin's ability to hydrolyze small synthetic peptide substrates. The second, a fibrin-clotting assay, measures the kinetics of clot formation, using either human plasma or purified fibrinogen as the thrombin substrate.
In the chromogenic assay, antithrombin activity is achieved by measuring the inhibition of release of p-nitroaniline from the chromogenic substrate H-D-phenylalanyl-L-pipecolyl-L-arginine-p-nitroanilide dihydrochloride (S-2238, supplied by Kabivitrum) by thrombin in the presence of hirudin. Thrombin concentration is 2 nM (typically 0.12 NIH units/ml), and hirudin can be assayed reproducibly at an approximate concentration range of 0.3 to 1 nM, using 296 uM substrate in 50 mM Tris buffer, 100 mM NaCl, pH 7.8, and 0.1% polyethylene glycol-6000 (PEG). PEG is included to inhibit binding of thrombin to the plastic surface of the microplate or cuvette; for the same reason, reaction vessels are pretreated with 1% PEG-20,000 prior to assay.
Hirudin inhibits the thrombin-mediated conversion of fibrinogen into a fibrin clot. […]

[3] = system: B16/F10 cells (murine melanoma); experiment: Cell adhesion assay, tumor cells binding to peptide-coated wells; type: cell-based; settings: summary of Table 2
Text: One of the assays used to measure the activity of the laminin B1 peptide measures the binding of tumor cells containing the laminin receptor to the peptide immobilized on the surface of a culture tissue (Graf et al (1987) Cell 48:989-996). This assay is a convenient and sensitive method for routine measurement of laminin cell receptor binding and therefore a good indicator of laminin antagonist activity.
The laminin B1 -40 peptide, along with the previously described YIGSR and CDPGYIGSR peptides, were dissolved in phosphate-buffered saline (PBS) and were coated onto Falcon #3915 polystyrene 96-well plates at 37° C. for 60 min. The peptide solutions were removed, and the wells were washed twice with PBS. Non-specific cell binding was prevented by adding 200 ul 0.1% bovine serum albumin (BSA) (Sigma #4965) in PBS to the wells and incubating for 60 min at 37° C. The BSA was removed by washing twice with PBS. […] The optical density of the solutions was read on a Molecular Devices Corporation plate reader at a wavelength between 590 nm and 405 nm. Extrapolation of optical density to number of cells bound was done by comparison of readings to a standard curve obtained by incubating various numbers of cells in microtiter plate wells for 5 h (to allow firm attachment but no significant dividing), and washing and staining as described above.

Molecule	pI (isoelectric point) (Isoelectric point (pI))	Sp. Act. (thrombin [1]; pMF1, lacUV5/tac, intracellular)	Sp. Act. (thrombin [1]; IU, international units, pHIR20 lam-PL, intracellular) [U/mg]	Sp. Act. (thrombin [1]; IU, international units, pHIR21 tac, periplasmic secretion) [U/mg]	Sp. Act. (thrombin [2]; AT (antithrombin units), E. coli, pNP6ΔRI-CRM/HIR, intracellular (Example 4))	specific activity (thrombin [2]; purified hirudin HV-1 standard)	binding of metastatic tumor cells compared with YIGSR or CDPGYIGSR (in words) [3]
HV-1: hirudin variant 1, thrombin inhibitor of Hirudo medicinalis, produced from a synthetic DNA	3.8	8,500 U/mg	500	560	11,300 U/mg	greater than 10 antithrombin units per ug	
Pro1 -Cys Pro Asp Gly Pro Asp Ser Gly Arg Gln Phe Ala Arg Ser Cys Tyr Gln Asp Pro Val Thr Leu Gln Leu Ala X Val Cys Asp Pro Gly Tyr Ile Gly Ser Arg Cys Asp Asp-Y [LamB1 -40]	3.65						binds metastatic tumor cells more effectively
B1	approximately 7.8						
